The record followed here is US20020146750A1 (published 2002).

Changes are numbered by the printed parent chain.

The chains are these.
B1: 7D1 (Fab, V domains shown)
VH: QVQLVQSGGGLVQPGGSLRLSCAASGFTFRSNAMGWVRQAPGKGLEWVSGISGSGGSTYYADSVKGRFTISRDNSKNTLYLQMNSLRAEDTAVYYCAKHTGGGVWDPIKHWGQGTLVTVSS
VL: EIVLTQSPLSLPVTPGEPASISCRSSQSLLHSNGYTYLDWYLQKPGQSPQLLIYSGSHRASGVPDRFSGSVSGTDFTLRISRVEAEDVGVYYCMQGLQSPFTFGPGTKVDIKR
notes: PH1 Fab variant; also called clone 7D1
B2: 7F9 (Fab, V domains shown)
VH: B1 VH with K109G, H110Y
VL: B1 VL
notes: PH1 Fab variant; also called clone 7F9
B3: 7F3 (Fab, V domains shown)
VH: B1 VH with K98I, H110Y
VL: B1 VL
notes: PH1 Fab variant; also called clone 7F3

This test deals with T1, MUC1 (mucin-1) on MUC1-expressing cells (human, UniProt P15941 24-1255, underglycosylated / partially glycosylated tumor-associated glycoforms).
T1 construct: whole, on cells; also called cellular MUC1; tumor-associated MUC1
T1 sequence (P15941 24-1255): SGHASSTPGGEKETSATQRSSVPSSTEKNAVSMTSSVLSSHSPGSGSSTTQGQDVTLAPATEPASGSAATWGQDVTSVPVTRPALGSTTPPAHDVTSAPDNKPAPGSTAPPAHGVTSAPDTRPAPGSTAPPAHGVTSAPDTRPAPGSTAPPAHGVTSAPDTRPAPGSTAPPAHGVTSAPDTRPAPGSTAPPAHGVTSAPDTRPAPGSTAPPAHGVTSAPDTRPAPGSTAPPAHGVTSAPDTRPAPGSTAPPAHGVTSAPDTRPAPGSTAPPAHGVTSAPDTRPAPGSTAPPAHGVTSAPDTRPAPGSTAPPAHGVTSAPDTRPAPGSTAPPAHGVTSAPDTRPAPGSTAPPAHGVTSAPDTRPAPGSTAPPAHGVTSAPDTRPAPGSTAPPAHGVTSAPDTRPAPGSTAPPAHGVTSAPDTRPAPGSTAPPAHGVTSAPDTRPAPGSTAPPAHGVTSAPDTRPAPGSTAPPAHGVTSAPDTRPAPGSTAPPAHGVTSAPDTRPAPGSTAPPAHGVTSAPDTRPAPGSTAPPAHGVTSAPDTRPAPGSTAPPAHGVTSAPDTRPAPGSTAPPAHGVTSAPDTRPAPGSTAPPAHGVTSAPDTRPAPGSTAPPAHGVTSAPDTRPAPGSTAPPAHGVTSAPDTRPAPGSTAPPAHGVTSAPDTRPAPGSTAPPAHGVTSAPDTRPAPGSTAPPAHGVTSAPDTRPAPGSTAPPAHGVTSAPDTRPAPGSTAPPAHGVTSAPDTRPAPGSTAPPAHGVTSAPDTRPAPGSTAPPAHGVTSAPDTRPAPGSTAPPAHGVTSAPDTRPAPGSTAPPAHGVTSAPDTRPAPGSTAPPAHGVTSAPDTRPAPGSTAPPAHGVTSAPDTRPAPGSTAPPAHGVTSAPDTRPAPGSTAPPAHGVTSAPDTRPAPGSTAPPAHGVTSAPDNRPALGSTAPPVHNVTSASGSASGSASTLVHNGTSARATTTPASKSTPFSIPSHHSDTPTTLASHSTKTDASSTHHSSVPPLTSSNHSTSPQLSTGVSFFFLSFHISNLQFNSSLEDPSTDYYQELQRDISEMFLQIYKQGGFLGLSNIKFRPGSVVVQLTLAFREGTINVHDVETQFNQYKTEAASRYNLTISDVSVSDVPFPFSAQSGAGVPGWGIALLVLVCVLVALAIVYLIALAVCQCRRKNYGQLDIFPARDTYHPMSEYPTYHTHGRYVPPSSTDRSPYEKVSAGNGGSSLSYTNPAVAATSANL
The test can be described thus: flow cytometry, purified Fab dilutions on cellular MUC1 (ETA cells); data not shown. How it is done:
Specific binding of the Fabs was measured by FACScalibur analysis (Becton Dickinson, Oxnard, Calif.) as described by Henderikx et al. (Cancer Res., 58: 4324-4332 (1998)). For affinity studies on cells with recombinant Fabs, the following flow cytometry experiment was carried out. Fab fragments were purified from the periplasmic fraction by IMAC and gel filtration as described in (Roovers et al., Br. J. Cancer, 78: 1407-1416 (1998)). Protein concentrations were measured with the bicinchoninic acid method (Sigma, St. Louis, Mo., USA). Two-fold serial dilutions of these Fabs were made and incubated, for each dilution point, with 2×10⁵/100 μl ETA cells (transfected 3T3 cells (Acres et al., J. Immunol., 14: 136-1443 (1993)). After trypsinisation, cells were washed one time in RPMI 10% FCS, 0.1% NaN₃ (incubation buffer). Then, cells were incubated with appropriate dilution for 1 hour at room temperature (RT), on a rotator. As negative controls, 2×10⁵ 3T3 mouse fibroblast cells were also incubated with the highest concentrations of antibodies. As a secondary negative control, ETA cells without primary antibody were used. Cells were spun down by centrifugation for 3 minutes at 611×g. Between incubations, cells were washed with incubation buffer. In a second incubation, anti-Myc antibody (6 μg/ml 9E10), directed against the Myc-tagged Fabs, was added for 30 minutes in incubation buffer at RT. After washing once, rabbit anti-mouse-FITC was used at RT for 30 minutes (Dako). Detection of bound antibodies was performed by means of flow cytometry on a FACSCalibur (Becton Dickinson, Oxnard), and results analyzed with the CELLQuest program (Becton Dickinson). Mean intensity was plotted against the concentration of the antibodies.
The relative ranking of the three clones from highest to lowest affinity (i.e., 7D1>7F3>7F9) appear to have stayed the same, but the positioning of both the wild type clone PH1 and best BIAcore mutant 5C8 appearef to be different from what was expected on the basis of the BIAcore affinity.
For B1, the binding result was “binds”.

For B2, the binding result is “binds”.

On to B3, for which the binding result is “binds”.
